# Source: the RNAGym collection of RNA variant scans (doi:10.1073/pnas.2313332121)
# This sample holds only a part of the variants without activity.
# B1: TPR 5TU (parent)
# chain: GGAUCUUCUCGAUCUAACAAAAAAGACAAAUCUGCCACAAAGCUUGAGAGCAUCUUCGGAUGCAGAGGCGGCAGCCUUCGGUGGCGCGAUAGCGCCAACGUUCUCAACUAUGACACGCAAAACGCGUGCUCCGUUGAAUGGAGUUUAUCAUG
# Variants of: B1
# Experiment: polymerase ribozyme fitness, log enrichment relative to wild type (log ratio); higher = more active; in vitro selection for triplet polymerase activity
# How it was run: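 Libraries of mutants in each subunit of a heterodimeric triplet polymerase ribozyme were generated by PCR and transcribed. In triplicate, each went through one in vitro selection round: annealing with biotinylated primer, partner subunit and triplets; frozen incubation at −7 °C; gel excision of extended constructs; streptavidin-bead capture; RT-PCR. Fitness, taken from Illumina sequencing of input and output libraries, is the logarithm of a genotype's enrichment over wild-type enrichment, averaged across replicates with inverse-variance weights. The logarithm is base 2, and genotypes needed ≥10 input reads and ≥1 read per output to be kept.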
row,Variant,polymerase ribozyme fitness (log ratio)
1,C10U A41U G92C U139G,-4.06
2,C10U A22C C36A A49C U53C C57G G58A G86U C93U G117U,≤ -4.2
3,G11C C38U C85G U135C,≤ -4.2
4,G11A A24G A41U C51A G59A G80A G84U U90A,≤ -4.2
5,G11C A91U,-4.11
6,G11U C87G,-4.09
7,C10U A24U U33G A41G U56A C85U A91C,≤ -4.2
8,G11A C54U G83A A147U,-0.578
9,C10U A107G,≤ -4.2
10,C10U U55A G84U,-4.1
11,G11U C32U C93G A107G,≤ -4.2
12,G11U A19C U55A G71A A91C G100A U109G A122U,≤ -4.2
13,G11C G58A,-1.65
14,A12C A23C C54A G81U G92C C99A,≤ -4.2
15,G11U A22C C87U,-2.61
16,G11A C35U C51U U61G C63U A64C C85G U90G G140A,≤ -4.2
17,A12C A19C U45G G84U A142C,≤ -4.2
18,C10U C123U G141C,-4.03
19,C10U U44A U102G A119C A121G A137C G143A,≤ -4.2
20,A12C A52C C54U U145A,-3.53
21,C10U C118U,-2.81
22,G11U A66C C76U U90G U102G U148G,≤ -4.2
23,G11U G68U A120U C125U,≤ -4.2
24,A12C A47U U55A,-1.41

row,Variant,polymerase ribozyme fitness (log ratio)
1,C10U C35U,-3.04
2,C10U G141A,-2.07
3,G11A A29U U82G C87A G94C C96U A98G A122C G141A,≤ -4.2
4,A12C A19C A122G U146C,-1.62
5,G11A C43G U90C G94A,-4.13
6,G11A U44A A52G C75U C76U G92C C149G,≤ -4.2
7,G11A A17C A39C,-3.25
8,G11A G59A,-1.71
9,G11U U13A A17U A26U A41C U45A C87A C108U A142C A147U,≤ -4.2
10,G11C C14G C87A A121C U144A,≤ -4.2
11,G11C C114U U139A,≤ -4.2
12,C10U G42U A64U C93A A106U C123U G140A,≤ -4.2
13,G11A A26C U90G,≤ -4.2
14,C10U G136A,-2.74
15,G11A C54A,-2.47
16,G11C C36U U78C C85G A120C C123A G124A U151C,≤ -4.2
17,C10U U56A C93U A122U C149U G152U,≤ -4.2
18,C10U A29G G59A G81A A97G,≤ -4.2
19,G11A A40C A49C G74C C85A C95G G100C A147U,≤ -4.2
20,C10U G94A U148G,≤ -4.2
21,G11A A16U A24U C85A A142C,≤ -4.2
22,G11C A115C,-2.86
23,G11A A23U A39U U53G C54U C93U A122U A142G,≤ -4.2
24,G11C A40C G84A A97U,-3.7

row,Variant,polymerase ribozyme fitness (log ratio)
1,G11A A26C C27G C35U C87A G124A,-4.15
2,A12C A16U U61A C125A,-3.45
3,A12C A52G,-0.179
4,C10U C14G A39C A91G C95G C99U C105G A137G,≤ -4.2
5,G11A A52G U53A C54A G84U G128U C132U,-4.13
6,C10U U55A C72U,-3.95
7,C10U C27U U55A G59C G84A,≤ -4.2
8,C10U C18U U44G A60G G92A,≤ -4.2
9,G11U C103G C123G,-2.44
10,C10U C35A A40U U44A C51U G59U G68C C87A G143U,≤ -4.2
11,G11C G74A C76U C93G A113G U145A,≤ -4.2
12,C10U C14G G34U U56G,≤ -4.2
13,G11U U56A A64G C118U A121U,≤ -4.2
14,G11C A40G G84A A97C G126A,≤ -4.2
15,C10U C32U G68U G74A U78A G92A C125A G140U U145G,≤ -4.2
16,G11U C51U A113U C132A U139G U146A,≤ -4.2
17,C10U A30U A49C C87U A89G C95G U104C C116U A119U G136C,≤ -4.2
18,C10U A47U G59C A60G G62A A110U G141C U145A U148A,≤ -4.2
19,G11U U33G A66C G84A G128U A137C U145A,≤ -4.2
20,C10U A41U G70C G83U C108U U134A A142G,≤ -4.2
21,G11C A47U C85U,-2.5
22,G11U C38A G83U U135C C149G,≤ -4.2
23,A12C A17G U31G U44A C93U C99U A122C U134A A142G,≤ -4.2
24,C10U U109G A142C C149A,≤ -4.2

row,Variant,polymerase ribozyme fitness (log ratio)
1,C10U U15C A29U C95U,≤ -4.2
2,G11C U56A G86A,≤ -4.2
3,A12C A142C,-1.32
4,G11U C32U G84A C85A C105U C132U U139G U151G,-4.14
5,A12C A66G A91U,≤ -4.2
6,C10U C14G C76U A106G A107G C108U,≤ -4.2
7,G11A A26C G68U C75U A147C,≤ -4.2
8,G11C A52G G84A G133C G141A,≤ -4.2
9,C10U A64C A89C G117C A137C,≤ -4.2
10,G11U A26U G83A,-4.06
11,G11U U55G A60G G67A C93U,≤ -4.2
12,G11A A17G C43U G94U A122G G141U,≤ -4.2
13,G11A A17G U31A U53G C54U A64G,≤ -4.2
14,G11U A52G A60G G83U,-3.33
15,G11A G34C A47G C103G A121U,≤ -4.2
16,G11C G42A G88C U102C G126U,≤ -4.2
17,G11A C85G G94U,-0.903
18,G11A C57A,-1.44
19,A12C A23G U31C U55A,≤ -4.2
20,C10U A47G G94U A147G,≤ -4.2
21,C10U C14G A28U G58C U61C G70C C76G C96U A138G G140U C149G,≤ -4.2
22,A12C A20G A37C C51U G58C A91C,≤ -4.2
23,G11U C38A C125U,-2.71
24,G11C A39U A73U C96U,≤ -4.2

row,Variant,polymerase ribozyme fitness (log ratio)
1,C10U C32A C51G A106G A142C U148A,≤ -4.2
2,G11A A23U U53A G92U C108U A142U,≤ -4.2
3,G11C C63U C79U G86C,≤ -4.2
4,C10U C57U C96U,-3.83
5,G11A C93G,≤ -4.2
6,G11A G58U C96U,-1.58
7,G11U C14U C72U G143A,≤ -4.2
8,C10U A21G A22G A40G C79A C85G A138U,≤ -4.2
9,A12C A39U G59A A91U C93U A150C,≤ -4.2
10,C10U A37C C75U C95G,≤ -4.2
11,C10U G124C U139G U148C,≤ -4.2
12,C10U G11U A29C U44G U55A G68A G71U G80A C93A A98U A138C,≤ -4.2
13,C10U C35U A47C C85A A89C C93U C95U,≤ -4.2
14,G11U C54A,-2.47
15,C10U G50C A64C G65C C93A A142U,≤ -4.2
16,G11U C14G G34U G84U G141U,≤ -4.2
17,A12C A29U G68C A73C G80U G84C,≤ -4.2
18,A12C A37C C72A U90G U101A C103U A138G A142U,≤ -4.2
19,A12C A29C C85A G133A,≤ -4.2
20,G11U A47G U53A,-2.54
21,G11C U15G A20C A28U C85U G140U U145G,≤ -4.2
22,C10U G92A G141C,-3.99
23,A12C A16G A41C A121U,-1.69
24,G11A A113U,-2.69

row,Variant,polymerase ribozyme fitness (log ratio)
1,G11C C14G A26U C105G U134G,≤ -4.2
2,C10U G58U G83A A89C A110G U148A,≤ -4.2
3,G11A U55A U101G,-1.01
4,G11C U31C G59C C76A G84U U104A A107U,≤ -4.2
5,C10U A19G U33A C79U C93U,≤ -4.2
6,G11A A39U A97C,-3.26
7,A12C A17U U53A C96A U139G,-3.83
8,G11U A17G C57U C63U G81A U82G,-1.64
9,G11U A91G,-3.82
10,G11U A40C G70C C103G,≤ -4.2
11,G11U C76A G83U C85A A137G,≤ -4.2
12,C10U A17U A41C G50C G84A,≤ -4.2
13,A12C A19C C99U,-1.52
14,C10U C116U A147C,-3.39
15,G11U C14G G34U G84U C125G C149G,≤ -4.2
16,C10U G84A,-3.34
17,C10U A23G G50U U53A G71C C87A A120U,≤ -4.2
18,C10U G65A G92A,≤ -4.2
19,G11U C18G G58C A60C U78C G83A C96U A115C,≤ -4.2
20,C10U C93A,-3.86
21,G11C A41C A66C C85U A122U G140U,≤ -4.2
22,G11U A22G C54U G65A C76U A98U C103G U144G,≤ -4.2
23,C10U G59A C93U A137G,≤ -4.2
24,G11A C38A A40G,-4.14

row,Variant,polymerase ribozyme fitness (log ratio)
1,C10U C27U C35G C87G C96U U148G,≤ -4.2
2,G11U A23U,≤ -4.2
3,G11U A29C A89C C125U,-4.16
4,A12C A20G G25A A30G U44A A89G U145G,≤ -4.2
5,G11C A17U C79G G86U U101G C125U G152A,≤ -4.2
6,G11C G83A G141U,-0.379
7,G11A C54U U55A G74A A89G G92C C105G G112A U144G,≤ -4.2
8,C10U U55A,-2.91
9,C10U G70U C87A C118U,≤ -4.2
10,A12C A20U U61A G92U C131A,≤ -4.2
11,G11C G46C C57U C85U,-3.93
12,A12C A60U C75G G88C A91G U109G,≤ -4.2
13,G11A A91G A138U,≤ -4.2
14,G11C A20U G86C C99G G136C U145G A147C,≤ -4.2
15,C10U U53C U55A G86A G88C,≤ -4.2
16,C10U C75U G84A U145A,-4.08
17,A12C A24G C85U C95U A120G,≤ -4.2
18,G11C A47C U55A G81A C87G A120U U144A,≤ -4.2
19,A12C A16G U55A,-2.45
20,G11A A21G A23C C54U G70C C76A G83U,≤ -4.2
21,G11A A39U A40C G100C,≤ -4.2
22,G11U U44A G92C,≤ -4.2
23,C10U A23U U90G,≤ -4.2
